The target in assay [1] is full-length HIV-1 Nef (RP14) (HIV-1). As to the kind of experiment: crystal structure; hanging drop, Nef at ~3.7 mg/ml; 0.1 M Tris pH 8.5, 0.2 M ammonium sulfate, 20% PEG 8000; space group P6(3)22, two chains in the asymmetric unit, tetramer with 4-fold symmetry formed through crystal symmetry; 3.5 Å.
Assay [2] has the same target. As to the kind of experiment: cross-linking; purified Nef with glutaraldehyde (0.0%, 0.025%, 0.05%, 0.075%, 0.1%) on ice for 15 minutes; 12% SDS-PAGE, silver stain and western blot with anti-His antibody. Background: A western blot detects proteins with antibodies after separation by electrophoresis.

One substance from publication PMC3206816 can be followed below.

“And” between values parts separate entries of the source, which are not always exact repeats. Equal values may be shown once.

Broadly, the stoichiometry N is a count of units in the complex or per binding partner. In the case of “full-length HIV-1 Nef (RP14) (natural protein)”, the stoichiometry N in assay [1] was 4; in assay [2], 2 and 4.
